Source: patent US20110243899A1 (NATIONAL UNIVERSITY CORPORATION CHIBA UNIVERSITY, published 2011)
Each block holds one molecule with its values, some of them ahead of it.

Tests used:
[1] = molecular target: Myc-tagged Frz8CRD (Frz8CRD-Myc), cysteine-rich domain of Frizzled 8 (Mus musculus (Mouse)) (UniProt Q61091); assay: liquid-phase binding assay with immunoprecipitated Frz8CRD-Myc, Scatchard plot
[2] = molecular target: T1, Myc-tagged LRP6N (LRP6N-Myc), extracellular portion of LRP6 (UniProt O75581 20-1370, limits assumed); assay: IP with anti-Myc antibody, immunoblot with anti-V5 antibody
T1 construct: extracellular domain; Produced in conditioned medium of 293 cells; not shown: Myc tag
T1 sequence (looked up): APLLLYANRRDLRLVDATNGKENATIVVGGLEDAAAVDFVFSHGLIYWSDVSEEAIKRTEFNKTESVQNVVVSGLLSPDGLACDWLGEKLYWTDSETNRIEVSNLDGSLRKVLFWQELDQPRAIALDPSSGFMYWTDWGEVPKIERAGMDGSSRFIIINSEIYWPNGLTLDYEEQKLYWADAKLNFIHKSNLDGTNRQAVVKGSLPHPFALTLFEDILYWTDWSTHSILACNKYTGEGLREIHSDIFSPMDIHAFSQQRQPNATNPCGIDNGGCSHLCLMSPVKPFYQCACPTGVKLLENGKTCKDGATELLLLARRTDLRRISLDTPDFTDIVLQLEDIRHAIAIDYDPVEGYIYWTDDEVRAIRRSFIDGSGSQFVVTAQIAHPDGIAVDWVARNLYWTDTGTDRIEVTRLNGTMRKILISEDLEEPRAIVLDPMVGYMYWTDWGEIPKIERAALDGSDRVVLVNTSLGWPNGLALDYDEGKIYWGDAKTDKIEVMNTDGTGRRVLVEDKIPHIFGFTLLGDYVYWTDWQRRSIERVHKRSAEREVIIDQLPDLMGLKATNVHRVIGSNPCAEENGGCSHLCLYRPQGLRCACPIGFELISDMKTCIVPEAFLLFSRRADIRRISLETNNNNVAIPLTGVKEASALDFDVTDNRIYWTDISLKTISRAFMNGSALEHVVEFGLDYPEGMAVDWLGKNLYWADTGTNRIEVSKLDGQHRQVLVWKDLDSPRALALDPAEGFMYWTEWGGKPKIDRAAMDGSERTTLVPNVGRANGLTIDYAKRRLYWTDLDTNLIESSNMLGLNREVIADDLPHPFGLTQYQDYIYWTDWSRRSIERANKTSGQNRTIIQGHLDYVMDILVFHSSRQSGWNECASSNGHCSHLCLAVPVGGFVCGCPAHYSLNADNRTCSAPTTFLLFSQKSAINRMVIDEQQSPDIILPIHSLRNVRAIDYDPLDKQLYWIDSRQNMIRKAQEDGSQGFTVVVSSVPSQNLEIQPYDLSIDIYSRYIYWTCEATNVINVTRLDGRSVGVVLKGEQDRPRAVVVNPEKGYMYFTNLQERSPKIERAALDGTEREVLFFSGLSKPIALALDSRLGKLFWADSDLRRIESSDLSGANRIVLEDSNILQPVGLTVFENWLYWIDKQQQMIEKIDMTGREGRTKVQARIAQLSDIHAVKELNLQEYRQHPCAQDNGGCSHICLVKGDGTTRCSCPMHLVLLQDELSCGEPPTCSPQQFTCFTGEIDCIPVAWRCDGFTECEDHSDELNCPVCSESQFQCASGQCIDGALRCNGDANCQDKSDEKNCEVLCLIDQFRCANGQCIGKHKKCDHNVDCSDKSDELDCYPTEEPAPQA
Method: The interaction was assessed by allowing LRP6N-Myc to react with each V5-tagged IGFBP, and performing immunoprecipitation (IP) with an anti-Myc antibody and subsequent immunoblotting (IB) with an anti-V5 antibody (upper panel), and immunoprecipitation (IP) with an anti-V5 antibody and subsequent immunoblotting (IB) with an anti-V5 antibody (lower panel). In the figure, IGFBP-1, IGFBP-2, IGFBP-3, IGFBP-4, IGFBP-5, and IGFBP-6 are represented by BP1, BP2, BP3, BP4, BP5, and BP6, respectively.

[3] = molecular target: T2, Myc-tagged LRP6N (LRP6N-Myc), extracellular portion of LRP6 (UniProt O75581 20-1370); assay: radioligand saturation binding (Scatchard); Kd1, high-affinity site
T2 chain: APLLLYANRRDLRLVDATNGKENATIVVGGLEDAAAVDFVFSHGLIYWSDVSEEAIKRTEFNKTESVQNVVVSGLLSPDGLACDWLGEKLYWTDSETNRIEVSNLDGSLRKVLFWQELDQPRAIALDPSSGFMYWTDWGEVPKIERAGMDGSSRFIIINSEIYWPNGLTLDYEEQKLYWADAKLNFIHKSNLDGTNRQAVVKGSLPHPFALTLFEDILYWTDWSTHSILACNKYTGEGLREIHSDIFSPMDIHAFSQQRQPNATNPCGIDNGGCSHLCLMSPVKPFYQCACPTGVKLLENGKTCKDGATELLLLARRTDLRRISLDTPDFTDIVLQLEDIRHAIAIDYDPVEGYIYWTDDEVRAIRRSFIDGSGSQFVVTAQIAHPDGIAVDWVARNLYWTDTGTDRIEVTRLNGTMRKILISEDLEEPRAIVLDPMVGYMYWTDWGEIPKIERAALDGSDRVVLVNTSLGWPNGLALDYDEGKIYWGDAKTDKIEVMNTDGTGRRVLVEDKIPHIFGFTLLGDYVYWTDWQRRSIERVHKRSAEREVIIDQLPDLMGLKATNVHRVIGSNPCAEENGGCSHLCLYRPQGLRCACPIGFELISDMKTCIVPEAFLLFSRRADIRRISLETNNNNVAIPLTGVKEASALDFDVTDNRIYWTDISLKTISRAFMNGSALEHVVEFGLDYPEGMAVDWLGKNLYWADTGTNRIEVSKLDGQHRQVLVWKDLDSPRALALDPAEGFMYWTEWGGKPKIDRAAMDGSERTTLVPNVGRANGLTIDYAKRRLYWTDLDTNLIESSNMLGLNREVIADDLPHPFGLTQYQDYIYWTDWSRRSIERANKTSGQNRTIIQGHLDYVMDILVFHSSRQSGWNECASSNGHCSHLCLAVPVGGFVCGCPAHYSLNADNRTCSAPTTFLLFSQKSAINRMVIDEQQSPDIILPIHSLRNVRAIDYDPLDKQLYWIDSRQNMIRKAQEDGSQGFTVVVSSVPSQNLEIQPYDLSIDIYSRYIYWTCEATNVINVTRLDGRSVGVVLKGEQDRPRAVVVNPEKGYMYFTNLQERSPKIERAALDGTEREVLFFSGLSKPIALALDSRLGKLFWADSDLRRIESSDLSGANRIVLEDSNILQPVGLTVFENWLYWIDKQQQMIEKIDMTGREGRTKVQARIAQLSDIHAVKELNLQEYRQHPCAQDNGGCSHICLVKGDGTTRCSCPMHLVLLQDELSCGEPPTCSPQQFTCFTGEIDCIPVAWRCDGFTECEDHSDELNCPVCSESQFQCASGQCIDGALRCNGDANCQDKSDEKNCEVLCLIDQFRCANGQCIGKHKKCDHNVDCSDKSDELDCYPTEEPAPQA

[4] = molecular target: T2, Myc-tagged LRP6N (LRP6N-Myc), …; assay: radioligand saturation binding (Scatchard); Kd2, low-affinity site
[5] = molecular target: T3, Myc-tagged Frz8CRD (Frz8CRD-Myc), cysteine-rich domain of Frizzled 8 (UniProt Q61091 28-151); assay: radioligand saturation binding (Scatchard)
T3 chain: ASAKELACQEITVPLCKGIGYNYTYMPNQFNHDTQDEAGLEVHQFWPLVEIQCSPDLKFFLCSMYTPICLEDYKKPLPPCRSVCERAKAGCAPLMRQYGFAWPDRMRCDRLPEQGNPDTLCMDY

Kd [1]: 25 nM
Molecule: ^125I-labelled IGFBP-4

binding result [2]: no binding
B1: IGFBP-5 (V5-tagged) (other, mouse, UniProt Q07079 20-271, looked up)
chain: LGSFVHCEPCDEKALSMCPPSPLGCELVKEPGCGCCMTCALAEGQSCGVYTERCAQGLRCLPRQDEEKPLHALLHGRGVCLNEKSYGEQTKIERDSREHEEPTTSEMAEETYSPKVFRPKHTRISELKAEAVKKDRRKKLTQSKFVGGAENTAHPRVIPAPEMRQESEQGPCRRHMEASLQEFKASPRMVPRAVYLPNCDRKGFYKRKQCKPSRGRKRGICWCVDKYGMKLPGMEYVDGDFQCHAFDSSNVE
notes: V5-tagged in the IP/western; not shown: V5 tag

Kd [3]: 0.17 nM
Kd [4]: 6.9 nM
Kd [5]: 2.5 nM
B2: ^125I-labelled IGFBP-4 (other)
chain: DEAIHCPPCSEEKLARCRPPVGCEELVREPGCGCCATCALGLGMPCGVYTPRCGSGLRCYPPRGVEKPLHTLMHGQGVCMELAEIEAIQESLQPSDKDEGDHPNNSFSPCSAHDRRCLQKHFAKIRDRSTSGGKMKVNGAPREDARPVPQGSCQSELHRALERLAASQSRTHEDLYIIPIPNCDRNGNFHPKQCHPALDGQRGKCWCVDRKTGVKLPGGLEPKGELDCHQLADSFRE

binding result [2]: no binding
B3: IGFBP-3 (V5-tagged) (other, mouse, UniProt P47878 28-292, looked up)
chain: GAGAVGAGPVVRCEPCDARALSQCAPPPTAPACTELVREPGCGCCLTCALREGDACGVYTERCGTGLRCQPRPAEQYPLRALLNGRGFCANASAAGSLSTYLPSQPAPGNISESEEEHNAGSVESQVVPSTHRVTDSKFHPLHAKMDVIKKGHARDSQRYKVDYESQSTDTQNFSSESKRETEYGPCRREMEDTLNHLKFLNVLSPRGVHIPNCDKKGFYKKKQCRPSKGRKRGFCWCVDKYGQPLPGYDTKGKDDVHCLSVQSQ
notes: as for B1
